{
  "source": "paper PMC11211491",
  "about": "“Design of a covalent protein-protein interaction inhibitor of SRPKs to suppress angiogenesis and invasion of cancer cells” (Communications Chemistry, 2024)",
  "biological_target": "SRPK1ΔNS3 (UniProt Q96SB4)",
  "note": "aryl‑sulfonyl fluoride = aryl-sulfonyl fluoride group, a lysine-reactive covalent warhead for SuFEx reactions",
  "data": [
    {"binder": "Ac-RERARTRRK(aryl‑sulfonyl fluoride)RARTRERARTR-NH2", "note": "[DBS1-1]", "values": [
      {"measurement": "IC50 of inhibition of the phosphorylation of SRSF1 by SRPK1ΔNS3 (in vitro kinase assay, [32P]ATP); blocked pair SRPK1-SRSF1", "value": 640, "unit": "nM"}
    ]}
  ]
}
